Data from patent US20170008943A1 (Novo Nordisk, published 2017).
*1 amine or outer side, *2 acyl side, *3 side chain or, on linkers, in order; H or OH if unused. Side-chain parts run from the residue outwards. [ ]: non-standard residue; d: D form. The star is where a group is joined. γGlu = O=C(O)[C@H](CCC(=O)[*:2])N[*:1]; Desaminohistidyl = O=C(CCc1c[nH]cn1)*; Aib = CC(C)(N)C(=O)O

Assays:
human glucagon receptor [1] = target: T1, human glucagon receptor (human, UniProt P47871 26-477); test: cell-based or functional assay
T1 sequence (P47871 26-477): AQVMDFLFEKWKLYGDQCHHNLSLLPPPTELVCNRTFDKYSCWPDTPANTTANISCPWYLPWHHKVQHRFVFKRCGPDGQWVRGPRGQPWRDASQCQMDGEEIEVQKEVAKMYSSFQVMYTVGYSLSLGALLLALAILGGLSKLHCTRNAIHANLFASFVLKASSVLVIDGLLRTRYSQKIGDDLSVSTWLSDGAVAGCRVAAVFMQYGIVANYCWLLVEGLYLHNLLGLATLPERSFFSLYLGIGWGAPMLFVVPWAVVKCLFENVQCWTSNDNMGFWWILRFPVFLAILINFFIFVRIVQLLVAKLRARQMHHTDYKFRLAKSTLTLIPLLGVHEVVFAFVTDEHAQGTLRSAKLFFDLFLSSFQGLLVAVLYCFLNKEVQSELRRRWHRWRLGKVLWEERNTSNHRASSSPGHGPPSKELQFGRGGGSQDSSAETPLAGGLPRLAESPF

human glucagon receptor [2] = target: T1, human glucagon receptor; test: displacement of 125I-glucagon from BHK membranes with human glucagon receptor (SPA), Assay (II)(b)

| Binder | EC50 hGlucagonR (pM), CRE luciferase reporter in BHK cells (human glucagon receptor [1]) | IC50 (human glucagon receptor [2]) |
| --- | --- | --- |
| [Desaminohistidyl]SHGTFTSDYSKYLD[Aib]RRAQDFVK([γGlu-γGlu-γGlu-γGlu-Ac])WLLST-OH (SMILES CC(=O)N[C@@H](CCC(=O)N[C@@H](CCC(=O)N[C@@H](CCC(=O)N[C@@H](CCC(=O)NCCCC[C@H](NC(=O)[C@@H](NC(=O)[C@H](Cc1ccccc1)NC(=O)[C@H](CC(=O)O)NC(=O)[C@H](CCC(N)=O)NC(=O)[C@H](C)NC(=O)[C@H](CCCNC(=N)N)NC(=O)[C@H](CCCNC(=N)N)NC(=O)C(C)(C)NC(=O)[C@H](CC(=O)O)NC(=O)[C@H](CC(C)C)NC(=O)[C@H](Cc1ccc(O)cc1)NC(=O)[C@H](CCCCN)NC(=O)[C@H](CO)NC(=O)[C@H](Cc1ccc(O)cc1)NC(=O)[C@H](CC(=O)O)NC(=O)[C@H](CO)NC(=O)[C@@H](NC(=O)[C@H](Cc1ccccc1)NC(=O)[C@@H](NC(=O)CNC(=O)[C@H](Cc1c[nH]cn1)NC(=O)[C@H](CO)NC(=O)CCc1c[nH]cn1)[C@@H](C)O)[C@@H](C)O)C(C)C)C(=O)N[C@@H](Cc1c[nH]c2ccccc12)C(=O)N[C@@H](CC(C)C)C(=O)N[C@@H](CC(C)C)C(=O)N[C@@H](CO)C(=O)N[C@H](C(=O)O)[C@@H](C)O)C(=O)O)C(=O)O)C(=O)O)C(=O)O, Imp and Aib written X under substitutions) | 2 pM | 0.3 nM |
| [Desaminohistidyl]SHGTFTSDYSKYLESRRAQEFVK([γGlu-γGlu-γGlu-Ac])WLLST-OH (SMILES CC(=O)N[C@@H](CCC(=O)N[C@@H](CCC(=O)N[C@@H](CCC(=O)NCCCC[C@H](NC(=O)[C@@H](NC(=O)[C@H](Cc1ccccc1)NC(=O)[C@H](CCC(=O)O)NC(=O)[C@H](CCC(N)=O)NC(=O)[C@H](C)NC(=O)[C@H](CCCNC(=N)N)NC(=O)[C@H](CCCNC(=N)N)NC(=O)[C@H](CO)NC(=O)[C@H](CCC(=O)O)NC(=O)[C@H](CC(C)C)NC(=O)[C@H](Cc1ccc(O)cc1)NC(=O)[C@H](CCCCN)NC(=O)[C@H](CO)NC(=O)[C@H](Cc1ccc(O)cc1)NC(=O)[C@H](CC(=O)O)NC(=O)[C@H](CO)NC(=O)[C@@H](NC(=O)[C@H](Cc1ccccc1)NC(=O)[C@@H](NC(=O)CNC(=O)[C@H](Cc1c[nH]cn1)NC(=O)[C@H](CO)NC(=O)CCc1c[nH]cn1)[C@@H](C)O)[C@@H](C)O)C(C)C)C(=O)N[C@@H](Cc1c[nH]c2ccccc12)C(=O)N[C@@H](CC(C)C)C(=O)N[C@@H](CC(C)C)C(=O)N[C@@H](CO)C(=O)N[C@H](C(=O)O)[C@@H](C)O)C(=O)O)C(=O)O)C(=O)O, Imp written X under substitutions) | 6 pM | 1.5 nM |
| [Desaminohistidyl]SHGTFTSDYSKYLESRRAQEFVK([Gly-γGlu-γGlu-γGlu-γGlu-Ac])WLLST-OH (SMILES CC(=O)N[C@@H](CCC(=O)N[C@@H](CCC(=O)N[C@@H](CCC(=O)N[C@@H](CCC(=O)NCC(=O)NCCCC[C@H](NC(=O)[C@@H](NC(=O)[C@H](Cc1ccccc1)NC(=O)[C@H](CCC(=O)O)NC(=O)[C@H](CCC(N)=O)NC(=O)[C@H](C)NC(=O)[C@H](CCCNC(=N)N)NC(=O)[C@H](CCCNC(=N)N)NC(=O)[C@H](CO)NC(=O)[C@H](CCC(=O)O)NC(=O)[C@H](CC(C)C)NC(=O)[C@H](Cc1ccc(O)cc1)NC(=O)[C@H](CCCCN)NC(=O)[C@H](CO)NC(=O)[C@H](Cc1ccc(O)cc1)NC(=O)[C@H](CC(=O)O)NC(=O)[C@H](CO)NC(=O)[C@@H](NC(=O)[C@H](Cc1ccccc1)NC(=O)[C@@H](NC(=O)CNC(=O)[C@H](Cc1c[nH]cn1)NC(=O)[C@H](CO)NC(=O)CCc1c[nH]cn1)[C@@H](C)O)[C@@H](C)O)C(C)C)C(=O)N[C@@H](Cc1c[nH]c2ccccc12)C(=O)N[C@@H](CC(C)C)C(=O)N[C@@H](CC(C)C)C(=O)N[C@@H](CO)C(=O)N[C@H](C(=O)O)[C@@H](C)O)C(=O)O)C(=O)O)C(=O)O)C(=O)O, Imp written X under substitutions) | 9.9 pM | 2.5 nM |
| [Desaminohistidyl]SHGTFTSDYSKYLESRRAQEFVQWLLSK([γGlu-γGlu-γGlu-γGlu-Ac])-OH (SMILES CC(=O)N[C@@H](CCC(=O)N[C@@H](CCC(=O)N[C@@H](CCC(=O)N[C@@H](CCC(=O)NCCCC[C@H](NC(=O)[C@H](CO)NC(=O)[C@H](CC(C)C)NC(=O)[C@H](CC(C)C)NC(=O)[C@H](Cc1c[nH]c2ccccc12)NC(=O)[C@H](CCC(N)=O)NC(=O)[C@@H](NC(=O)[C@H](Cc1ccccc1)NC(=O)[C@H](CCC(=O)O)NC(=O)[C@H](CCC(N)=O)NC(=O)[C@H](C)NC(=O)[C@H](CCCNC(=N)N)NC(=O)[C@H](CCCNC(=N)N)NC(=O)[C@H](CO)NC(=O)[C@H](CCC(=O)O)NC(=O)[C@H](CC(C)C)NC(=O)[C@H](Cc1ccc(O)cc1)NC(=O)[C@H](CCCCN)NC(=O)[C@H](CO)NC(=O)[C@H](Cc1ccc(O)cc1)NC(=O)[C@H](CC(=O)O)NC(=O)[C@H](CO)NC(=O)[C@@H](NC(=O)[C@H](Cc1ccccc1)NC(=O)[C@@H](NC(=O)CNC(=O)[C@H](Cc1c[nH]cn1)NC(=O)[C@H](CO)NC(=O)CCc1c[nH]cn1)[C@@H](C)O)[C@@H](C)O)C(C)C)C(=O)O)C(=O)O)C(=O)O)C(=O)O)C(=O)O, Imp written X under substitutions) | 4 pM | 5.1 nM |
| [Desaminohistidyl]SHGTFTSDYSKYLESRRAQK([γGlu-γGlu-γGlu-γGlu-Ac])FVQWLLST-OH (SMILES CC(=O)N[C@@H](CCC(=O)N[C@@H](CCC(=O)N[C@@H](CCC(=O)N[C@@H](CCC(=O)NCCCC[C@H](NC(=O)[C@H](CCC(N)=O)NC(=O)[C@H](C)NC(=O)[C@H](CCCNC(=N)N)NC(=O)[C@H](CCCNC(=N)N)NC(=O)[C@H](CO)NC(=O)[C@H](CCC(=O)O)NC(=O)[C@H](CC(C)C)NC(=O)[C@H](Cc1ccc(O)cc1)NC(=O)[C@H](CCCCN)NC(=O)[C@H](CO)NC(=O)[C@H](Cc1ccc(O)cc1)NC(=O)[C@H](CC(=O)O)NC(=O)[C@H](CO)NC(=O)[C@@H](NC(=O)[C@H](Cc1ccccc1)NC(=O)[C@@H](NC(=O)CNC(=O)[C@H](Cc1c[nH]cn1)NC(=O)[C@H](CO)NC(=O)CCc1c[nH]cn1)[C@@H](C)O)[C@@H](C)O)C(=O)N[C@@H](Cc1ccccc1)C(=O)N[C@H](C(=O)N[C@@H](CCC(N)=O)C(=O)N[C@@H](Cc1c[nH]c2ccccc12)C(=O)N[C@@H](CC(C)C)C(=O)N[C@@H](CC(C)C)C(=O)N[C@@H](CO)C(=O)N[C@H](C(=O)O)[C@@H](C)O)C(C)C)C(=O)O)C(=O)O)C(=O)O)C(=O)O, Imp written X under substitutions) | 17 pM | 5.2 nM |
| [Desaminohistidyl]SHGTFTSDYSKYLESRRAQEFVQWLLSTK([γGlu-γGlu-γGlu-γGlu-Ac])-OH (SMILES CC(=O)N[C@@H](CCC(=O)N[C@@H](CCC(=O)N[C@@H](CCC(=O)N[C@@H](CCC(=O)NCCCC[C@H](NC(=O)[C@@H](NC(=O)[C@H](CO)NC(=O)[C@H](CC(C)C)NC(=O)[C@H](CC(C)C)NC(=O)[C@H](Cc1c[nH]c2ccccc12)NC(=O)[C@H](CCC(N)=O)NC(=O)[C@@H](NC(=O)[C@H](Cc1ccccc1)NC(=O)[C@H](CCC(=O)O)NC(=O)[C@H](CCC(N)=O)NC(=O)[C@H](C)NC(=O)[C@H](CCCNC(=N)N)NC(=O)[C@H](CCCNC(=N)N)NC(=O)[C@H](CO)NC(=O)[C@H](CCC(=O)O)NC(=O)[C@H](CC(C)C)NC(=O)[C@H](Cc1ccc(O)cc1)NC(=O)[C@H](CCCCN)NC(=O)[C@H](CO)NC(=O)[C@H](Cc1ccc(O)cc1)NC(=O)[C@H](CC(=O)O)NC(=O)[C@H](CO)NC(=O)[C@@H](NC(=O)[C@H](Cc1ccccc1)NC(=O)[C@@H](NC(=O)CNC(=O)[C@H](Cc1c[nH]cn1)NC(=O)[C@H](CO)NC(=O)CCc1c[nH]cn1)[C@@H](C)O)[C@@H](C)O)C(C)C)[C@@H](C)O)C(=O)O)C(=O)O)C(=O)O)C(=O)O)C(=O)O, Imp written X under substitutions) [N^α([Imp1, His3, Glu15, Glu21, Leu27, …] | 4 pM | 2 nM |
| XSHGTFTSDYSKYLESRRAQEFVKWLLST (Imp (imidazopropionyl, des-amino-histidine) at position 1; N-epsilon of Lys24 acylated with acetyl-(gamma-Glu)5 substituent as in the name; C-terminal carboxylic acid, Imp written X under substitutions) | 6 pM | 2.7 nM |
